Reference: article PMC8752837, “Structural basis of BAK activation in mitochondrial apoptosis initiation” (Nature Communications, 2022)
Numbering of substitutions follows the chain as printed. Names and notes keep the numbering of the source.

How the values were obtained:
[1] = Liposome permeabilization by WT and mutant BAK proteins (autoactivation, or direct activation by BID BH3); format: biochemical; details: absence of BID BH3
Description: Human BAK-∆TM-His6 (BAK)[26] spontaneously permeabilizes liposomes above a certain dose (>100 nM, Fig. 1a). In these dye-release assays[43]–[46], BAK is recruited via His-tag to liposomes containing 2.5 µM of the lipid 1,2-dioleoyl-sn-glycero-3-[(N-(5-amino-1-carboxypentyl)iminodiacetic acid)succinyl] (nickel salt), DGS-NTA(Ni).
To probe autoactivation with full-length BAK, we mutated hydrophobic residues at positions (0)−(6) of the BH3 to alanine or arginine, and D83, which forms the conserved salt bridge (s) with R127, to alanine (Fig. 2a). The BH3 residues participate in autoactivation from the ligand side [hydrophobic positions (0)–(5) and D83(s)] and also from the receptor groove side [hydrophobic positions (3)–(5)] (Fig. 2a). Thus, substitutions at positions (3)–(5) should affect receptor and ligand activities and are predicted to impact BAK activation more severely than mutations of positions (0)–(2), which affect only ligand activity. […] In contrast, almost all (2)–(5) and (s) missense mutants were considerably impaired in autoactivation (Fig. 2b and Supplementary Fig. 3a). […] Despite impairment in autoactivation, all missense mutants were directly activated by BID BH3 peptide, although they induced lower level of permeabilization compared to WT BAK (Fig. 2b and Supplementary Fig. 3a).
We performed liposome permeabilization assays as previously described[43]–[46]. […] (nickel salt) [DGS NTA(Ni), 2.5 μM final concentration in each assay] (Avanti Polar Lipids). We prepared 12.5 mM fluorophore; 8-aminonaphthalene-1, 3, 6-trisulfonic acid, disodium salt (ANTS) and 45 mM quencher; p-xylene-bis-pyridiniumbromide (DPX) in LUV buffer (10 mM HEPES pH 6.8, 200 mM KCl and 5 mM MgCl2). We mixed the lipid film in ANTS/DPX solution by vortexing and sonication (~15 min) followed by extrusion through polycarbonate membrane of 2 μm pore size (Avanti Polar lipids) to generate homogenous large unilamellar vesicles (LUVs). We separated LUVs from free ANTS/DPX by S500 size exclusion chromatography and stored them at 4 °C in the dark. We prepared peptide and protein dilutions in 96-well black flat bottom plates (Costar) kept on ice. ANTS release from permeabilized liposomes causes an increase in fluorescence, which we monitored at 37 °C for 90 min using a CLARIOSTAR microplate reader (BMG Labtech) set at excitation and emission wavelengths of 360 and 530 nm, respectively. We normalized the data relative to maximum and minimum fluorescence induced by 3% CHAPS and buffer controls, respectively. We quantified liposome permabilization by integrating area under curve (AUC) of normalized traces based on the Simpson’s equation, and analyzed that data in Excel and GraphPad Prism. AUC measurements reflect the kinetic and extent of liposome permeabilization and provide quantitative means for comparison between different experimental conditions (e.g., BAK mutants with gross or partial variation in activity). Variability in permeabilization of different liposomes is common and our analyses compare among conditions investigated with the same liposomes. Although the absolute permeabilization values may differ, the trends for the same conditions are always very similar between different liposomes.

[2] = system: BCL2allKO HCT116 cells reconstituted with Dox-inducible mC-BAK; experiment: Dox-induced cell death by IncuCyte imaging of SYTOX Green uptake (autoactivation); format: cell-based, human; details: for AUC (48 hr) of SYTOX Green counts/confluence: mC-BAK BCL2allKO HCT116 + Dox + qVD, average, N = 3; for SYTOX Green +ve counts/confluence AUC of kinetic traces: Fig 3d
Description: For mammalian cell culture experiments, we cloned the full length human BAK cDNA into pCR 2.1 TOPO vector, mutated BAK as needed, and PCR amplified the BAK gene for cloning into the BamHI and NotI sites of pRETROX mCherry vector for retroviral transduction. Amplification and mutagenesis primers are included in Supplementary Table 4. To test direct BAK activation and BAK autoactivation in cells, we produced cells stably expressing mCherry-human BAK (mC-BAK) ± human BID (BID) on a genetic background devoid of the entire BCL-2 family repertoire (all 17 BCL-2 genes), BCL2allKO HCT116, as described by the Xu Luo laboratory. We expressed WT and mutant mC-BAK using the doxycycline (Dox)-based inducible Tet-On 3G retroviral system from the pRetroX-TRE3G-Puro^R in BCL2allKO HCT116 cells expressing the Tet3G from pRetroX-Tet3G-Blast^R. We selected cells with puromycin (2.5 µg/mL) and blasticidin (2 µg/mL) starting at 2 days after retroviral transduction. To enrich for populations of cells that express mC-BAK, we treated cells with low Dox dose (25 ng/mL) and fluorescence-activated cell sorted (FACS) the mCherry positive cells. We performed the enrichment twice before cell death analysis. One caveat of our cellular system is tagging BAK with N-terminal mCherry, which may affect folding efficiency, degradation, and BAK interactome.
(§1) We seeded cells in 24-well (100,000 cells/well), 96-well (15,000 cells/well), or 384-well (10,000 cells/well) plates coated with 10 µg/mL fibronectin. After ≥24 h of attachment and recovery, we induced cell death with Dox (up to 1000 ng/mL) and monitored SYTOX Green (25 nM) uptake by Incucyte imaging. This dye marks cells with compromised plasma membrane integrity. mC-BAK expressed before 24 h, which coincided with detectable cell death. We monitored Incucyte imaging for up to 48 h, followed by endpoint FACS analysis to measure the extent of cell death based on SYTOX Green positive cells on FACSCalibur systems (BD Biosciences). As expected, cells with low mCherry fluorescence were refractory to cell death.

[3] = system: BCL2allKO HCT116 cells reconstituted with mC-BAK; experiment: Endpoint FACS analysis of SYTOX Green positive cells; format: cell-based, human; details: average, N = 3
Description: as §1

[4] = system: BCL2allKO HCT116 cells expressing mC-BAK and BID; experiment: Dox + TRAIL + CHX induced cell death by IncuCyte imaging of SYTOX Green uptake (direct activation); format: cell-based, human; details: TRAIL 200 ng/mL + CHX 0.5 µg/mL added at 6 h
Description: We achieved stable, constitutive expression of human BID in mC-BAK expressing BCL2allKO HCT116 by retroviral transduction based on pMX-human-BID-IRES-GFP. Amplification primers are included in Supplementary Table 4. We performed two rounds of FACS sorting gating on GFP-positive cells to enrich for populations of cells that express BID.
For coexpression of mC-BAK + BID, we treated cells with different doses of Dox for 24 h to induce expression of mC-BAK. At 6 h, we treated cells with TRAIL (200 ng/mL) + cycloheximide (CHX, 0.5 µg/mL) to promote BID activation under conditions of protein synthesis inhibition by CHX, and continued to record Incucyte imaging of SYTOX Green uptake up to 48 h. We blocked caspase activity with qVD (40 µM).

B1: M71A (0): BAK missense mutant (protein, UniProt Q16611 2-211, looked up, variant M71A)
Bcl-2 homologous …: ASGQGPGPPRQECGEPALPSASEEQVAQDTEEVFRSYVFYRHQQEQEAEGVAAPADPEMVTLPLQPSSTAGQVGRQLAIIGDDINRRYDSEFQTMLQHLQPTAENAYEYFTKIATSLFESGINWGRVVALLGFGYRLALHVYQHGLTGFLGQVTRFVVDFMLHHCIARWIAQRGGWVAALNLGNGPILNVLVVLGVVLLGQFVVRRFFKS
In the case of B1, the “autoactivation in liposome permeabilization assays” value (shortened to “autoactivation”) [1] is reported as “behave similar to WT BAK”.

B2: R137A: BAK mutant in helix α1 electrostatic network (protein, UniProt Q16611 2-211, looked up, variant R137A)
Bcl-2 homologous …: B1 Bcl-2 homologous … with A70M, R136A
For B2, the “autoactivation” value [1] was “hyperactive compared to WT”.

B3: I81A (3): BAK missense mutant (protein, UniProt Q16611 2-211, looked up, variant I81A)
Bcl-2 homologous …: B1 Bcl-2 homologous … with A70M, I80A
With B3 the “AUC (48 hr) of SYTOX Green counts/confluence” value ([2]; Dox 100 ng/mL) was 55640.5, the “AUC (48 hr) of SYTOX Green counts/confluence” value ([2]; Dox 1000 ng/mL) was 85389.8 and the “flow cytometry SYTOX Green counts/confluence (48 hr)” value ([3]; Dox 100 ng/mL) was 37.7333. The “flow cytometry SYTOX Green counts/confluence (48 hr)” value ([3]; Dox 1000 ng/mL) was 54.2.

B4: R42A: BAK mutant in helix α1 electrostatic network (protein, UniProt Q16611 2-211, looked up, variant R42A)
Bcl-2 homologous …: B1 Bcl-2 homologous … with R41A, A70M
In the case of B4, the “autoactivation” value [1] is reported as “hyperactive compared to WT”.

B5: E46A: BAK mutant in helix α1 electrostatic network (protein, UniProt Q16611 2-211, looked up, variant E46A)
Bcl-2 homologous …: B1 Bcl-2 homologous … with E45A, A70M
In the case of B5, the “autoactivation” value [1] is reported as “hyperactive compared to WT”.

B6: I85A (4): BAK missense mutant (protein, UniProt Q16611 2-211, looked up, variant I85A)
Bcl-2 homologous …: B1 Bcl-2 homologous … with A70M, I84A
In the case of B6, the “autoactivation” value [1] is reported as “activity comparable to WT”.

B7: D83A (s): BAK missense mutant, autoactivation-impaired; in cells as mCherry fusion (protein)
chain: MASGQGPGPPRQECGEPALPSASEEQVAQDTEEVFRSYVFYRHQQEQEAEGVAAPADPEMVTLPLQPSSTMGQVGRQLAIIGADINRRYDSEFQTMLQHLQPTAENAYEYFTKIATSLFESGINWGRVVALLGFGYRLALHVYQHGLTGFLGQVTRFVVDFMLHHCIARWIAQRGGWVAALNLGNG
modifications: left off: His6, C-terminal, kept
notes: in cells as mCherry fusion
In the case of B7, the “cell death with Dox + TRAIL + CHX compared to Dox alone” value [4] is reported as “boosted the levels of cell death”, the “SYTOX Green +ve counts/confluence AUC of kinetic traces” value (from here on “SYTOX Green +ve counts/confluence AUC”) ([2]; Dox 6.25 ng/mL) is reported as 251.48 and the “SYTOX Green +ve counts/confluence AUC” value ([2]; Dox 6.25 ng/mL + qVD) is reported as 178.809. The “SYTOX Green +ve counts/confluence AUC” value ([2]; Dox 12.5 ng/mL) was 298.87, the “SYTOX Green +ve counts/confluence AUC” value ([2]; Dox 12.5 ng/mL + qVD) was 216.467 and the “SYTOX Green +ve counts/confluence AUC” value ([2]; Dox 25 ng/mL) was 546.446. For the same molecule, the “SYTOX Green +ve counts/confluence AUC” value ([2]; Dox 25 ng/mL + qVD) was 167.305, the “SYTOX Green +ve counts/confluence AUC” value ([2]; Dox 50 ng/mL) was 973.937 and the “SYTOX Green +ve counts/confluence AUC” value ([2]; Dox 50 ng/mL + qVD) was 180.875. For the same molecule, the “SYTOX Green +ve counts/confluence AUC” value ([2]; Dox 100 ng/mL) was 1429.67, the “SYTOX Green +ve counts/confluence AUC” value ([2]; Dox 100 ng/mL + qVD) was 197.929 and the “SYTOX Green +ve counts/confluence AUC” value ([2]; Dox 500 ng/mL) was 1807.16. The “SYTOX Green +ve counts/confluence AUC” value ([2]; Dox 500 ng/mL + qVD) was 226.028, the “SYTOX Green +ve counts/confluence AUC” value ([2]; Dox 1000 ng/mL) was 2018.82 and the “SYTOX Green +ve counts/confluence AUC” value ([2]; Dox 1000 ng/mL + qVD) was 223.673. For the same molecule, the Dox-induced cell death ([2]; IncuCyte SYTOX Green up to 48 h) was “consistently less potent at inducing apoptosis than V74A(1)”, the “AUC (48 hr) of SYTOX Green counts/confluence” value ([2]; Dox 100 ng/mL) was 54126.6 and the “AUC (48 hr) of SYTOX Green counts/confluence” value ([2]; Dox 1000 ng/mL) was 77700.1. The “fold higher expression level for similar cell death compared to V74A” value ([2]; mC-BAK/actin immunoblot, Fig. 3d) was ~ 10 fold, the “flow cytometry SYTOX Green counts/confluence (48 hr)” value ([3]; Dox 100 ng/mL) was 35.2333 and the “flow cytometry SYTOX Green counts/confluence (48 hr)” value ([3]; Dox 1000 ng/mL) was 43.7667.
